Patent publication US20050266009A1 (SAVIENT PHARMACEUTICALS, published 2005)

How the values were obtained:
GPIb on human platelets = molecular target: T1, GPIb on human platelets (human, UniProt P07359 17-652); assay: FACS on human platelets
T1 construct: whole, on cells; also called GPIbα; platelet GPIb

[1] = molecular target: T2, GPIb on guinea pig platelets (guinea pig); assay: FACS on guinea pig platelets
T2 construct: whole, on cells; also called guinea pig derived platelets

T1 sequence (P07359 17-652): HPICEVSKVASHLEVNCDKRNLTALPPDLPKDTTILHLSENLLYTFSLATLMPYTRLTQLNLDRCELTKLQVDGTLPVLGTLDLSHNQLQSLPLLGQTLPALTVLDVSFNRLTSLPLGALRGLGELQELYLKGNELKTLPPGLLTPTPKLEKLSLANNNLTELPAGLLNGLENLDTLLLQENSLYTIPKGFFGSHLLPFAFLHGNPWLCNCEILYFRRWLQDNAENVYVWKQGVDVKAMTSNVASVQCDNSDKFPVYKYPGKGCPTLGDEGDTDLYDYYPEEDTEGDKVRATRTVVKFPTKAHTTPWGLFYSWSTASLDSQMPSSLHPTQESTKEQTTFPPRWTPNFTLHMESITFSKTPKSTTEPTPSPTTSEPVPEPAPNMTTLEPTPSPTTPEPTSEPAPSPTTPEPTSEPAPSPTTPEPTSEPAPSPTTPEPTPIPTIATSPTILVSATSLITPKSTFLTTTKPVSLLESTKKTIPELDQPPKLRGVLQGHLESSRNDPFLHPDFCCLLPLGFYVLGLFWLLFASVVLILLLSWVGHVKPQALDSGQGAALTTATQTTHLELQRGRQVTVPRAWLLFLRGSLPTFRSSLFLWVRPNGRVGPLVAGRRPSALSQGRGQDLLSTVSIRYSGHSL

| fold binding capacity relative to Y1 (GPIb on human platelets) | fold binding capacity relative to Y1 [1] | Binder |
| --- | --- | --- |
| ~25 fold | – | S1 scFv (scFv) EVQLVESGGGVVRPGGSLRLSCAASGFTFDLNPKVKHMWVRQAPGKGLEWVSGINWNGGSTGYADSVKGRFTISRDNAKNSLYLQMNSLRAEDTAVYYCARLRPPFLWGQGTLVTVSRGGGGSGGGGSGGGGSSELTQDPAVSVALGQTVRITCQGDSLRSYYASWYQQKPGQAPVLVIYGKNNRPSGIPDRFSGSSSGNTASLTITGAQAEDEADYYCNSRDSSGNHVVFGGGTKLTVLGAAAEQKLISEEDLNGAA |
| – | ~25 fold | D1 scFv (scFv) scFv: EVQLVESGGGVVRPGGSLRLSCAASGFTFDLNPKVKHMWVRQAPGKGLEWVSGINWNGGSTGYADSVKGRFTISRDNAKNSLYLQMNSLRAEDTAVYYCARLRSPFGWGQGTLVTVSRGGGGSGGGGSGGGGSSELTQDPAVSVALGQTVRITCQGDSLRSYYASWYQQKPGQAPVLVIYGKNNRPSGIPDRFSGSSSGNTASLTITGAQAEDEADYYCNSRDSSGNHVVFGGGTKLTVLGAAAEQKLISEEDLNGAA |
